According to the supplement of paper PMC10567573:

B1: PTPN9 (parent)
chain: TQHLPRECLPENLGGYVKIDLATW

Variants of: B1
Assay: protein stability index of a GFP-peptide fusion (GPS, HEK-293T) (PSI 1-6); higher = more stable
Conditions: c terminus: a fixed tail appended
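Further: lentivirally expressed fusions sorted by FACS into six bins by GFP to DsRed ratio, PSI derived from sequencing read proportions per bin multiplied by bin number.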

Protein stability index of substitutions, site by site:
H3: T 2.45, M 1.92, G 2.1, C 1.91, Y 1.66, P 1.77, A 1.84, V 1.64, I 1.79, W 1.65, K 2.03, N 2.03, R 1.56, S 2.15, D 2.86, E 2.28, F 2.35, L 1.92, Q 1.91
C8: P 2.16, L 1.8, M 1.81, E 2.24, H 2.56, K 1.93, Y 2.11, G 1.78, D 2.48, F 2.3, A 2.16, T 2.19, I 1.7, Q 2.29, N 2.15, R 1.69, S 2.04, W 1.72, V 2.02
Q2: S 1.73, I 1.96, A 1.84, Y 2.48, D 2.02, W 1.49, C 2.11, T 1.99, P 2.02, G 2.5, R 1.76, H 1.52, L 2.17, E 2.08, K 1.86, V 1.66, F 1.31, N 2.05, M 1.47
R6: A 2.08, H 1.63, N 1.98, T 2.2, Q 2.31, P 2.24, W 1.57, Y 1.69, M 2.16, V 2.26, G 2.51, I 1.99, D 2.52, K 2.2, F 1.81, C 1.69, E 2.27, S 2.18, L 1.49
L4: I 1.86, G 1.96, H 2.53, N 2, V 1.96, K 2.1, M 2.38, A 1.8, Y 1.99, Q 2.82, W 2.14, P 2.5, T 1.98, R 2.04, E 2.46, S 1.8, F 2.06, D 2.31, C 2.43
T1: G 2.15, W 2.54, F 2.14, M 1.57, N 2.18, V 1.74, I 1.72, Y 2.31, K 1.88, H 2.07, Q 2.05, R 2.1, S 2.11, L 1.67, E 2.06, D 2.51, P 2.07, C 1.51
E7: K 1.52, D 2.2, T 1.42, I 2.52, N 1.86, L 2.25, P 2.52, W 1.93, C 2.49, M 2.33, Q 1.63, A 1.82, R 2.5, S 1.94, Y 2.19, G 1.62, F 1.74, V 2.22, H 1.85
P5: H 1.95, Q 1.66, A 2.18, C 1.77, N 2.04, M 1.53, R 2.45, E 2.6, L 2.83, G 1.73, V 1.57, T 1.92, D 2.26, I 2.88, K 2.68, Y 1.64, S 1.89, F 1.82, W 2.33
L9: P 2.18, T 2.01, A 2.55, E 2.22, S 1.75, N 1.97, C 1.73, F 1.94, G 1.61, Q 2.01, M 2.03, K 2.47, I 1.85, H 1.73, R 1.77, D 2.24
